Results on two molecules are retold here after publication PMC6265447, “The bacterial Mre11–Rad50 homolog SbcCD cleaves opposing strands of DNA by two chemically distinct nuclease reactions”.

In general, Kd refers to a measure of binding affinity in units of concentration.

In this data set the target is SbcC;SbcD H84Q (Escherichia coli;Escherichia coli, UniProt P13458;P0AG76 1-1048;1-400, |H84Q). Description: fluorescence anisotropy; 1 mM ATP, 5 mM Mg2+, 1 mM Mn2+; 25 mM Tris pH 7.5, 50 mM KCl, 5 mM MgCl2, 1 mM MnCl2, 1 mM DTT, 1 mM ATP where stated; 5 nM DNA, 2-1000 nM SbcCD, 20 min at 25 C. To be noted: protein: recombinant;recombinant; tags: ;C-terminal His6; chain copies: 2;2; label: 5' 6-FAM; blunt. A general note: In fluorescence polarisation assays a small probe gives low polarisation when free and higher when bound to something large.

B1: 25 bp DNA (dsDNA)
DNA 1: CGCTTTATCAGAAGCCAGACATTAA
DNA 2: TTAATGTCTGGCTTCTGATAAAGCG
B1: the Kd was 146 ± 46 nM.

B2: 30 bp DNA (dsDNA)
DNA 1: CGCTTTATCAGAAGCCAGACATTAACGCTT
DNA 2: AAGCGTTAATGTCTGGCTTCTGATAAAGCG
Turning to B2, the Kd worked out at 43 ± 7 nM.
